Values belong to the binder of their own block, whether it stands above or below them. Where no end group is shown, it is not given here.
Key:
[1] = target: T1, SMR1-QHNPR (SMR1-Pentapeptide)
T1 chain: QHNPR

[2] = target: T2, rat Neutral EndoPeptidase 24-11 (NEP), membrane-bound, in rat tissue membrane preparations and fresh tissue … (rat, UniProt P07861 2-750); experiment: cell-based or functional assay
T2 sequence (looked up): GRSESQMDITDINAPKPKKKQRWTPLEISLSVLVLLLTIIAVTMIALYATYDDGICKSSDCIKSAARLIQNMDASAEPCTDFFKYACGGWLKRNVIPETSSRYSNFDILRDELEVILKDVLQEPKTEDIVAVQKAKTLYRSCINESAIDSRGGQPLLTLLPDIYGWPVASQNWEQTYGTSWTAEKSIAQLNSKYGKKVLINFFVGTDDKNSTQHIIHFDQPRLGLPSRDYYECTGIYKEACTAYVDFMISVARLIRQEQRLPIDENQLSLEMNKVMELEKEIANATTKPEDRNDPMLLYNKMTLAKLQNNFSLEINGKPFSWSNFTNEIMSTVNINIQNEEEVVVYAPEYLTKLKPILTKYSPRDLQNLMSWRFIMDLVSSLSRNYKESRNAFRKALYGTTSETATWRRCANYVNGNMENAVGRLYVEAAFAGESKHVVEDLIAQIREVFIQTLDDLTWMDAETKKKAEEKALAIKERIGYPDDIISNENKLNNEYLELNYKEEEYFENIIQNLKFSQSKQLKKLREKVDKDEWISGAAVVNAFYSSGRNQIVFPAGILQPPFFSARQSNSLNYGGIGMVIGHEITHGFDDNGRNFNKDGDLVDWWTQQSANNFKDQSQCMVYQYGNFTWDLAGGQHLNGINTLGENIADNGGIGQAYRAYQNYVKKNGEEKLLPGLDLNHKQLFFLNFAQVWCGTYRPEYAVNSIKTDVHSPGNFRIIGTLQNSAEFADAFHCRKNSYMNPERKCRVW

[3] = target: T3, purified rabbit renal NEP (rabbit, UniProt P08049 2-750, limits assumed); experiment: cell-based or functional assay
T3 sequence (looked up): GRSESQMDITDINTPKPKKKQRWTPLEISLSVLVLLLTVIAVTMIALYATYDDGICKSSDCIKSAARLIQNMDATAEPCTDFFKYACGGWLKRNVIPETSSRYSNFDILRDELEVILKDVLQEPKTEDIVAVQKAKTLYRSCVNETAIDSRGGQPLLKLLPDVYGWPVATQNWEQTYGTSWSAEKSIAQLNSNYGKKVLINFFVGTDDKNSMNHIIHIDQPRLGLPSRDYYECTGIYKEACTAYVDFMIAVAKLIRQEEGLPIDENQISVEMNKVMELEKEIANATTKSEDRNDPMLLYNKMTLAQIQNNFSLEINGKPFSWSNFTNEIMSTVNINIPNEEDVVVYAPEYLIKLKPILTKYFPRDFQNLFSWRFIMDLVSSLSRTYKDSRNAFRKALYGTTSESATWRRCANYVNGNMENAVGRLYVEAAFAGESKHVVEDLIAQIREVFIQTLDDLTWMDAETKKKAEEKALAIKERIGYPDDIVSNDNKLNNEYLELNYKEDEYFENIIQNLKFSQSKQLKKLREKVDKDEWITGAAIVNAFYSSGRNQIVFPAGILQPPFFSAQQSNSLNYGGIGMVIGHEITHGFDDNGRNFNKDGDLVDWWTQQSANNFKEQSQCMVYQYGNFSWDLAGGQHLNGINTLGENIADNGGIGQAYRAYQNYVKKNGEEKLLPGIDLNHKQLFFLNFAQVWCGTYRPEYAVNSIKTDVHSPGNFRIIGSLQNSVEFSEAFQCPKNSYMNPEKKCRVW

[4] = target: T4, modified tritiated Substance P: [(3,4 3H) Pro2-Sar9-Met(O2)11]-Substance P, P20366
T4 chain: RPKPQQFFGLM

B1: rat Neutral EndoPeptidase 24-11 (NEP), membrane-bound, in rat tissue membrane preparations and fresh tissue slices (protein)
chain: T2 sequence (looked up)
fold rise of the apparent Km of the enzyme for substrate (substance P), rat renal membranes [1]: raising the apparent Km of the enzyme for substrate by 2-5 fold

IC50 (concentration of the inhibitor reducing by half the degradation of 3H-substance P) on rat spinal cord membrane preparations [2]: ~100 nM
IC50 of inhibition of 3H substance-P degradation by rat kidney membranes [2]: 500 to 1000 nM
inhibitory potency (IC50) with rat spinal NEP [2]: 400 nM
inhibitory potency (IC50) with purified rabbit renal NEP and synthetic specific fluorogenic substrate [3]: 600 nM
Binder: QHNPR (also: Gln form interconverts with pGlu form by N-terminal cyclization) [SMR1-QHNPR (SMR1-Pentapeptide)]

B2: purified rabbit renal NEP (protein)
chain: T3 sequence (looked up)
initial velocity of substance P hydrolysis by purified rabbit renal NEP (Vi) [4]: Vi=140 pM/min/µg enzyme

Reference: patent US20040116342A1 (INSTITUT PASTEUR, published 2004)
